Test results taken from patent publication US20110105397A1, “METHOD FOR TREATING HEART FAILURE WITH STRESSCOPIN-LIKE PEPTIDES” (priority 2009, published 2011).
Where a SMILES comes first, the peptide text is derived from it. Where no end group is shown, it is not given here. The star is where a group is joined. Succinimide(1-Et,3-yl) = CCN1C(=O)CC(*)C1=O

T1: human CRHR2 (Homo sapiens, UniProt Q13324)
T1 construct: expressed in transfected cells
T1 sequence (Q13324 1-411): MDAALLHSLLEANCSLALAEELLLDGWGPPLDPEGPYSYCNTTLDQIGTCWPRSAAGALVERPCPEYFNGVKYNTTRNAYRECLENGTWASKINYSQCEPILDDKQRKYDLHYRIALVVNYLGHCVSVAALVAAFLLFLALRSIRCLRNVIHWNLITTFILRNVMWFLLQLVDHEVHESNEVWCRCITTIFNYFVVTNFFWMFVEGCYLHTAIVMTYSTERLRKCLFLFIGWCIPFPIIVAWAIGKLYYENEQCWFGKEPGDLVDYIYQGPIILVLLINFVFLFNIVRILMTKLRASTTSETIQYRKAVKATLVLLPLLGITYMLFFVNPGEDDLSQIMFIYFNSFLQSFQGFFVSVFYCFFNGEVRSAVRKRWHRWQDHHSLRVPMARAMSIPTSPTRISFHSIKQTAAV

T2: human corticotrophin releasing hormone receptor type 2 (CRHR2) (human, UniProt Q13324 1-411)
T2 sequence (looked up): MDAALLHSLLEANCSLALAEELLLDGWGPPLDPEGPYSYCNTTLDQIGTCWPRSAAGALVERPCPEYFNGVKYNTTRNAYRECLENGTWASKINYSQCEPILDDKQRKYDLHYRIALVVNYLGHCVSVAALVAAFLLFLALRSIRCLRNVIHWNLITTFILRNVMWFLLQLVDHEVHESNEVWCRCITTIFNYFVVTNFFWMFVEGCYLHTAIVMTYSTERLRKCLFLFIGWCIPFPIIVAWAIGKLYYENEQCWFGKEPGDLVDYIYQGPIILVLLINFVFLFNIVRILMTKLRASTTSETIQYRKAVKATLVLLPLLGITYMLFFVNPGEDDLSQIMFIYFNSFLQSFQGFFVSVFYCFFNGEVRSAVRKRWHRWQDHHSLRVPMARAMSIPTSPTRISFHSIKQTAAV

T3: human corticotrophin releasing hormone receptor type 2 (CRHR2) (human) (UniProt Q13324)
T3 sequence (looked up): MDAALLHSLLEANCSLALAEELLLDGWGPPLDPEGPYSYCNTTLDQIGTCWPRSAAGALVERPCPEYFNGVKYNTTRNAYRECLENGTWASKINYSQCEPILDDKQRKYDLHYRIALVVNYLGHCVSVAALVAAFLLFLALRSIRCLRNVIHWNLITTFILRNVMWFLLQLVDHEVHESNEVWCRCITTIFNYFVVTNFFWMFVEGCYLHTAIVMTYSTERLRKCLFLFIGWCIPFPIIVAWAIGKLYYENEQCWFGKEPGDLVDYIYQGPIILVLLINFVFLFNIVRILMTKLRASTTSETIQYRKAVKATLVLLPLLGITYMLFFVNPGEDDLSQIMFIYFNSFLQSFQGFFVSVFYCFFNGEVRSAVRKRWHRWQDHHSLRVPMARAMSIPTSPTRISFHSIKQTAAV

T4: human corticotrophin releasing hormone receptor type 1 (CRHR1) (human, UniProt P34998 24-415)
T4 sequence (looked up): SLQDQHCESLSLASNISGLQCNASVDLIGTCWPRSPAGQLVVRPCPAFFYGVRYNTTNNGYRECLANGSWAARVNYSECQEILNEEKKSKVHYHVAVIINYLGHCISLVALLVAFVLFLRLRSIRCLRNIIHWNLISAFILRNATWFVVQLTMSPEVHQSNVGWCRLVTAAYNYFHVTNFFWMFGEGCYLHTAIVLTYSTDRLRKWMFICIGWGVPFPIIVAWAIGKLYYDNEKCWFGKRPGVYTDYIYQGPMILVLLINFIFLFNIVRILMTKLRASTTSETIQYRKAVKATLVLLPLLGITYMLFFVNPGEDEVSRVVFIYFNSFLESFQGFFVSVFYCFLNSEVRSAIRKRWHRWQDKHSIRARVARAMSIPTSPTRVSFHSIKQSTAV


Key:
[1] = target: T1, human CRHR2; experiment: cAMP assay, h-CRHR2 transfected SK-N-MC cells; assay type: cell-based; details: Table 13; for EC50: cysteine mutation, N-ethylmaleimide capping, pegylation, read-out: pA50 (converted); for Log DR [M]: h-SCP control pA50 minus test compound pA50 within the same assay batch
How it was run: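 SK-N-MC cells stably expressing human CRHR2 were treated with peptides (1 pM to 1 μM) for 60 min at 37 °C in IBMX-containing medium, with 10 μM forskolin as positive control. Cells were lysed with 0.5 M HCl and cAMP measured by [125I]-cAMP competition flash plate. A50 came from Hill-equation fits, normalised to h-SCP maximum.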

[2] = target: T2, human corticotrophin releasing hormone …; experiment: cell-based or functional assay
[3] = target: T3, human corticotrophin releasing hormone receptor type 2 (CRHR2) (human); experiment: cell-based or functional assay
[4] = target: T4, human corticotrophin releasing hormone …; experiment: cell-based or functional assay
[5] = target: T3, human corticotrophin releasing hormone receptor type 2 (CRHR2) (human); experiment: radioligand competition against [125I]-anti-sauvagine-30, membranes of SK-N-MC cells with human CRHR2

EC50 [1] [nM] | Log DR [M] [1] | pA50 [2] | Molecule | further results
0.331 | −0.01 |  | CC[C@H](C)[C@H](NC(=O)[C@H](CCC(N)=O)NC(=O)[C@H](C)NC(=O)[C@H](CCSC)NC(=O)[C@H](CC(C)C)NC(=O)[C@H](Cc1c[nH]cn1)NC(=O)[C@H](C)NC(=O)[C@H](CC(N)=O)NC(=O)[C@H](CSC1CC(=O)N(CC)C1=O)NC(=O)[C@H](C)NC(=O)[C@H](C)NC(=O)[C@H](CCC(N)=O)NC(=O)[C@H](C)NC(=O)[C@H](CCCNC(=N)N)NC(=O)[C@H](CC(C)C)NC(=O)[C@H](CC(N)=O)NC(=O)[C@H](CCCCN)NC(=O)[C@H](C)NC(=O)[C@H](CCCCN)NC(=O)[C@H](C)NC(=O)[C@@H](NC(=O)[C@H](CC(N)=O)NC(=O)[C@H](Cc1ccccc1)NC(=O)[C@H](CC(C)C)NC(=O)[C@H](CC(C)C)NC(=O)[C@H](CC(N)=O)NC(=O)[C@H](CCSC)NC(=O)[C@@H](NC(=O)[C@H](CC(N)=O)NC(=O)[C@@H](NC(=O)[C@@H]1CCCN1C(=O)[C@@H](NC(=O)[C@H](CC(=O)O)NC(=O)[C@H](CC(C)C)NC(=O)[C@H](CO)NC(=O)[C@H](CC(C)C)NC(=O)[C@@H](NC(=O)[C@H](Cc1ccccc1)NC(=O)[C@H](CCCCN)NC(=O)[C@@H](N)[C@@H](C)O)[C@@H](C)O)C(C)C)[C@@H](C)O)[C@@H](C)CC)[C@@H](C)CC)C(N)=O (stereo partly shown) [SEQ ID NO: 45, TKFTLSLDVPTNIMNLLFNIAKAKNLRAQAAC(-NES)NAH LMAQI-NH2] (H-TKFTLSLDVPTNIMNLLFNIAKAKNLRAQAAC(Succinimide(1-Et,3-yl))NAHLMAQI-NH2; N-terminus assumed) | 
0.389 | 0.11 |  | H-TKFTLSLDVPTNIMNLLFNIAKAKNLRAQACANAHLMAQI-NH2 [SEQ ID NO: 32, TKFTLSLDVPTNIMNLLFNIAKAKNLRAQACANAHLMAQI-NH2] | 
 |  | 8.49 -log10(M) | TLSLDVPTNIMNLLFNIAKAKNLRAQAAANAHLMAQI-NH2 [Stresscopin-like peptide with shortened amino acid sequence, 37 aa, SEQ ID NO: 108] | 
 |  | 9.25 -log10(M) | KFTLSLDVPTNIMNLLFNIAKAKNLRAQAAANAHLMAQI-NH2 [Stresscopin-like peptide with shortened amino acid sequence, 39 aa, SEQ ID NO: 107] | 
 |  |  | IVLSLDVPIGLLQILLEQARARAAREQATTNARILARV-NH2 [human urocortin 2] | pA50 [3]: 9.51 -log10(M); pA50 [4]: 6.02 -log10(M); pKI [5]: 7.74 -log10(M)
 |  | 7.34 -log10(M) | LSLDVPTNIMNLLFNIAKAKNLRAQAAANAHLMAQI-NH2 [Stresscopin-like peptide with shortened amino acid sequence, 36 aa, SEQ ID NO: 109] | 
